Test results: patent US20230265192A1

How the values were obtained:
Test in all cases: cell-based or functional assay
[1] = target: human FcγRIIb on Jurkat/NFAT-Luc effector cells (human) (UniProt P31994)
[2] = target: human FcγRIIa, low-affinity R131 variant, on Jurkat/NFAT-Luc effector cells (human) (UniProt P12318)
[3] = target: mouse FcγRIII on Jurkat/NFAT-Luc effector cells (mouse) (UniProt P08508)
[4] = target: human FcγRIIa, high-affinity H131 variant, on Jurkat/NFAT-Luc effector cells (human) (UniProt P12318)
[5] = target: mouse FcγRIV on Jurkat/NFAT-Luc effector cells (mouse)
Sequence of mouse FcγRIV on Jurkat/NFAT-Luc effector cells (mouse) (A0A0B4J1G0 21-203): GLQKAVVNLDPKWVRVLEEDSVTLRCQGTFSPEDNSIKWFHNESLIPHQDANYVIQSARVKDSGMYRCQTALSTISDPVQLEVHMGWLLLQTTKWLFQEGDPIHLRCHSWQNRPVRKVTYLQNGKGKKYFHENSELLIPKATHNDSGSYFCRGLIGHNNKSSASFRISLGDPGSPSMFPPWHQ

Sequence of human FcγRIIa, low-affinity R131 variant, on Jurkat/NFAT-Luc effector cells (human) (P12318 other isoform, or with tags, fused parts or gaps mutant limits assumed): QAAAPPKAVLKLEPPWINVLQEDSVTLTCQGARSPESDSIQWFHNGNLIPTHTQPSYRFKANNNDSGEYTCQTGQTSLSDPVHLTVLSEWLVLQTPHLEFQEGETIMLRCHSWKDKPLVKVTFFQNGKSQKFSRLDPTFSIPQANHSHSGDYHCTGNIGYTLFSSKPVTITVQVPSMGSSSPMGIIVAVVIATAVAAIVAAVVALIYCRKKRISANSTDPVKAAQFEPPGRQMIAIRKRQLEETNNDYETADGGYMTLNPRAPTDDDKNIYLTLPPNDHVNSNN
Sequence of human FcγRIIa, high-affinity H131 variant, on Jurkat/NFAT-Luc effector cells (human) (P12318 34-317, change not shown): as the sequence (P12318 other isoform, or with tags, fused parts or gaps mutant limits assumed) above, with R134H counted along it
Sequence of human FcγRIIb on Jurkat/NFAT-Luc effector cells (human) (P31994 43-310): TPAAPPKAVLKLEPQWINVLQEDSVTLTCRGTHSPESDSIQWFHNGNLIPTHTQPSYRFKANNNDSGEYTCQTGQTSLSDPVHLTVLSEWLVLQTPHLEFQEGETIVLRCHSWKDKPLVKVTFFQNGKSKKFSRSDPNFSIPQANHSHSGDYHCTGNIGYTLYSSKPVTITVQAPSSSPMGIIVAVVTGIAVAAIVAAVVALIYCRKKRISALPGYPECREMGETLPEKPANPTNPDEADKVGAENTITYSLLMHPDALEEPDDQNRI
Sequence of mouse FcγRIII on Jurkat/NFAT-Luc effector cells (mouse) (P08508 31-261): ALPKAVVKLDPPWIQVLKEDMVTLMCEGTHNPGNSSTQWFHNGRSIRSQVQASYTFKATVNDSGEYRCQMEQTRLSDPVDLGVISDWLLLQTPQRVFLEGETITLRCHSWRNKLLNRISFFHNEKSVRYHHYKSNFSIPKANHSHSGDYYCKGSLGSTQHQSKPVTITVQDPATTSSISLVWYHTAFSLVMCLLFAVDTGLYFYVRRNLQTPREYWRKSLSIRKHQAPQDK

- EC50 (µg/mL), FcR reporter bioassay [1]: 0.17 µg/mL
- Maximum luminescence (RLU), FcR reporter bioassay [1]: 5800 RLU
- EC50 (µg/mL), FcR reporter bioassay [2]: 0.21 µg/mL
- Maximum luminescence (RLU), FcR reporter bioassay [2]: 2640 RLU
- Maximum luminescence (RLU), FcR reporter bioassay [3]: 17500 RLU
- EC50 (µg/mL), FcR reporter bioassay [4]: 0.05 µg/mL
- Maximum luminescence (RLU), FcR reporter bioassay [4]: 973 RLU
- EC50 (µg/mL), FcR reporter bioassay [5]: 2.21 µg/mL
- Maximum luminescence (RLU), FcR reporter bioassay [5]: 990 RLU
Substance: Ipilimumab (antibody)
